Results from article PMC9482650, “Quantitative fragmentomics allow affinity mapping of interactomes” (Nature Communications, 2022).

T1: PCLO, Q9Y6V0
T1 sequence (Q9Y6V0 4491-4600, limits assumed, looked up): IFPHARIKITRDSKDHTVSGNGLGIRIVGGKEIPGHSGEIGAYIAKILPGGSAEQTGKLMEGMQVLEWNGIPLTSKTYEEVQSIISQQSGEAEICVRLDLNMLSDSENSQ

T2: LNX2_2, Q8N448
T2 sequence (Q8N448 334-432, limits assumed, looked up): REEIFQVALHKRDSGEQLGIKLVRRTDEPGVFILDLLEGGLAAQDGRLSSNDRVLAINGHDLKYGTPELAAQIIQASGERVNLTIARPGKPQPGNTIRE

T3: TX1BP3, O14907
T3 sequence (O14907 10-122, limits assumed, looked up): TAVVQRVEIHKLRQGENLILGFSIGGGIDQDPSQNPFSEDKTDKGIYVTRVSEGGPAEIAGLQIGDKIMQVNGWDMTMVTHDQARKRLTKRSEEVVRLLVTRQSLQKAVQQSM

T4: DFNB31_1, Q9P202
T4 sequence (Q9P202 135-233, limits assumed, looked up): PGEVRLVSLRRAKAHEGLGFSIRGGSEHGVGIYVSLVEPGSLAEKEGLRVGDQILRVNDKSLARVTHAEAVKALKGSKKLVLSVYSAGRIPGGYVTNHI

T5: HTRA4, P83105
T5 sequence (P83105 378-476, limits assumed, looked up): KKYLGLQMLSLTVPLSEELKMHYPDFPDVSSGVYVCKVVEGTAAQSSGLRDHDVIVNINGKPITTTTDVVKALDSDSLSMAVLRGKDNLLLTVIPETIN

T6: MPDZ_10, O75970
T6 sequence (O75970 1624-1722, limits assumed, looked up): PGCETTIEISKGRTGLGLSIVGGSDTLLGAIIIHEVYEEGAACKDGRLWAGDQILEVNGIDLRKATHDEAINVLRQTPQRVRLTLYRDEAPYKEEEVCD

T7: LIN7A, O14910
T7 sequence (O14910 103-200, limits assumed, looked up): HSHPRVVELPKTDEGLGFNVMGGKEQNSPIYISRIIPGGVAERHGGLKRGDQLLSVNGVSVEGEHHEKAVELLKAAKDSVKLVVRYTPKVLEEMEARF

T8: NHERF3_4, Q5T2W1
T8 sequence (Q5T2W1 373-468, limits assumed, looked up): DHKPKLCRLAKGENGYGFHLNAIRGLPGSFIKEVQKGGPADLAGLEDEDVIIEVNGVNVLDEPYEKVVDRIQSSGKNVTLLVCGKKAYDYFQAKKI

T9: RADIL, Q96JH8
T9 sequence (Q96JH8 971-1071, limits assumed, looked up): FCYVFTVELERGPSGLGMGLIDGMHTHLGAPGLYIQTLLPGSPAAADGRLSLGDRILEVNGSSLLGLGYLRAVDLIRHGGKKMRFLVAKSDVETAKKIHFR

T10: GRIP1_7, Q9Y3R0
T10 sequence (Q9Y3R0 999-1096, limits assumed, looked up): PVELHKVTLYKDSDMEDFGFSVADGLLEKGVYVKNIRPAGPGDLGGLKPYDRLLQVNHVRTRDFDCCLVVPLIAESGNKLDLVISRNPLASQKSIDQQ

T11: ARHGEF11, O15085
T11 sequence (O15085 42-136, limits assumed, looked up): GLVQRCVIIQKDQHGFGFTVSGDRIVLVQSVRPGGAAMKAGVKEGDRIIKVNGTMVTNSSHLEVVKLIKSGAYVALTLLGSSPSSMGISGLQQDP

T12: MPP2, Q14168
T12 sequence (Q14168 180-250, limits assumed, looked up): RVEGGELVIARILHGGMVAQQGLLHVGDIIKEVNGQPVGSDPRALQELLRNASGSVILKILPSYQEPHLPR


How the values were obtained:
Assay in all cases: holdup assay
Design in all cases: key: below the threshold = too weak to quantify, mostly under pKd 3.1 to 4
Conditions in all cases: plain residues with an end cap or a label only (N-terminal biotin on a linker: ado-ado)
PCLO, Q9Y6V0 = molecular target: T1, PCLO, Q9Y6V0
LNX2_2, Q8N448 = molecular target: T2, LNX2_2, Q8N448
LNX1_3, Q8TBB1 = molecular target: LNX1_3, Q8TBB1
Inadl_10, Q8NI35 = molecular target: Inadl_10, Q8NI35
Inadl_5, Q8NI35 = molecular target: Inadl_5, Q8NI35
TX1BP3, O14907 = molecular target: T3, TX1BP3, O14907
TJP2_1, Q9UDY2 = molecular target: TJP2_1, Q9UDY2
FRMPD2_1, Q68DX3 = molecular target: FRMPD2_1, Q68DX3
FRMPD2_2, Q68DX3 = molecular target: FRMPD2_2, Q68DX3
DFNB31_1, Q9P202 = molecular target: T4, DFNB31_1, Q9P202
MAGI3_2, Q5TCQ9 = molecular target: MAGI3_2, Q5TCQ9
IL16_3, Q14005 = molecular target: IL16_3, Q14005
TJP1_2, Q07157 = molecular target: TJP1_2, Q07157
HTRA4, P83105 = molecular target: T5, HTRA4, P83105
MPDZ_10, O75970 = molecular target: T6, MPDZ_10, O75970
MAGI1_1, Q96QZ7 = molecular target: MAGI1_1, Q96QZ7
LIN7A, O14910 = molecular target: T7, LIN7A, O14910
NHERF3_4, Q5T2W1 = molecular target: T8, NHERF3_4, Q5T2W1
RADIL, Q96JH8 = molecular target: T9, RADIL, Q96JH8
GRIP1_7, Q9Y3R0 = molecular target: T10, GRIP1_7, Q9Y3R0
ARHGEF11, O15085 = molecular target: T11, ARHGEF11, O15085
GOPC, Q9HD26 = molecular target: GOPC, Q9HD26
Inadl_9, Q8NI35 = molecular target: Inadl_9, Q8NI35
MAGI1_2, Q96QZ7 = molecular target: MAGI1_2, Q96QZ7
MPP2, Q14168 = molecular target: T12, MPP2, Q14168

Sequence of Inadl_10, Q8NI35 (Q8NI35 1673-1763): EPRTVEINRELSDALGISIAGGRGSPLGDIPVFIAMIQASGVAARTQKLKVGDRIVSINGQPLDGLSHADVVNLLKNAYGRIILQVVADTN
Sequence of MAGI1_2, Q96QZ7 (Q96QZ7 456-580): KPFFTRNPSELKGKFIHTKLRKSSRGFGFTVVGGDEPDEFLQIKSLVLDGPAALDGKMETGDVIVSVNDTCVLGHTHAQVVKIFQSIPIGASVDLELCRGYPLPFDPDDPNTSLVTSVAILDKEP
Sequence of MAGI1_1, Q96QZ7 (Q96QZ7 1-106): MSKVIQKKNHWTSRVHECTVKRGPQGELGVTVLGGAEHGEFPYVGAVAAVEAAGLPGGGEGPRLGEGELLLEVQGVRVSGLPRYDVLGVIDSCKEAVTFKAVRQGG
Sequence of Inadl_5, Q8NI35 (Q8NI35 673-780): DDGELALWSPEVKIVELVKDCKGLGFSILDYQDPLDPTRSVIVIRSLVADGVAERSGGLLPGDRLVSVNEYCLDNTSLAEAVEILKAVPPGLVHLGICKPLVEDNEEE
Sequence of TJP2_1, Q9UDY2 (Q9UDY2 24-128): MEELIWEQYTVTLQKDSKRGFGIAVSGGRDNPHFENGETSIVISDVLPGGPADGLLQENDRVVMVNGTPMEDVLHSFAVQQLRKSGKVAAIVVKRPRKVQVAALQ
Sequence of Inadl_9, Q8NI35 (Q8NI35 1530-1615): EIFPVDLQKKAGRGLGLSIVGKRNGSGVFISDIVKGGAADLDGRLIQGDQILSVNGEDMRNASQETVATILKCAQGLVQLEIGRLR
Sequence of LNX1_3, Q8TBB1 (Q8TBB1 500-596): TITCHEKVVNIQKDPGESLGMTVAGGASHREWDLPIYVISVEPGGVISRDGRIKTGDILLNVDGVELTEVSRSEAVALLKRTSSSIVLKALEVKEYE
Sequence of IL16_3, Q14005 (Q14005 1107-1207): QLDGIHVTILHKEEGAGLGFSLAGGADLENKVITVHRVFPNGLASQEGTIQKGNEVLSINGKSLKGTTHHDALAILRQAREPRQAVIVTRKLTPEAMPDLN
Sequence of MAGI3_2, Q5TCQ9 (Q5TCQ9 398-503): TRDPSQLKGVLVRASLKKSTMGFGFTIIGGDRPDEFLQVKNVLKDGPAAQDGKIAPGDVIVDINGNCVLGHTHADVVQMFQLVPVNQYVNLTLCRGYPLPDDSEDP
Sequence of TJP1_2, Q07157 (Q07157 181-274): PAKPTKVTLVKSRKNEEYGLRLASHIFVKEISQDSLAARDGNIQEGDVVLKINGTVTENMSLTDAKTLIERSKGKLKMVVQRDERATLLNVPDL
Sequence of FRMPD2_1, Q68DX3 (Q68DX3 770-861): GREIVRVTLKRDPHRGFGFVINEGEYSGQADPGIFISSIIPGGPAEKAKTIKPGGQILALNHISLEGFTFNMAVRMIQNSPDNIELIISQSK
Sequence of FRMPD2_2, Q68DX3 (Q68DX3 944-1038): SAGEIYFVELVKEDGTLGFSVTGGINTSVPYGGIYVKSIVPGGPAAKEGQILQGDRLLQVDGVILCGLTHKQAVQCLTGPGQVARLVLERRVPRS

Row | pKd (PCLO, Q9Y6V0) | pKd (LNX2_2, Q8N448) | pKd (LNX1_3, Q8TBB1) | pKd (Inadl_10, Q8NI35) | pKd (Inadl_5, Q8NI35) | pKd (TX1BP3, O14907) | pKd (TJP2_1, Q9UDY2) | pKd (FRMPD2_1, Q68DX3) | pKd (FRMPD2_2, Q68DX3) | pKd (DFNB31_1, Q9P202) | pKd (MAGI3_2, Q5TCQ9) | pKd (IL16_3, Q14005) | pKd (TJP1_2, Q07157) | pKd (HTRA4, P83105) | pKd (MPDZ_10, O75970) | pKd (MAGI1_1, Q96QZ7) | pKd (LIN7A, O14910) | pKd (NHERF3_4, Q5T2W1) | pKd (RADIL, Q96JH8) | pKd (GRIP1_7, Q9Y3R0) | Binder | also measured
1 | below the threshold | below the threshold | below the threshold | below the threshold | below the threshold | 4.23 | below the threshold | below the threshold | below the threshold | below the threshold | 4.18 | below the threshold | below the threshold | below the threshold | below the threshold | below the threshold | below the threshold | below the threshold | below the threshold | below the threshold | SARSRLSSNL [HCN2, Q9UL51] | pKd (ARHGEF11, O15085): 3.74; pKd (GOPC, Q9HD26): 3.5; pKd (Inadl_9, Q8NI35): below the threshold; pKd (MAGI1_2, Q96QZ7): 4.17; pKd (MPP2, Q14168): below the threshold
2 | below the threshold | below the threshold | below the threshold | below the threshold | below the threshold | below the threshold | below the threshold | below the threshold | below the threshold | below the threshold | below the threshold | below the threshold | below the threshold | below the threshold | below the threshold | below the threshold | below the threshold | below the threshold | below the threshold | below the threshold | IKAIVDLTGL [TRAF2, Q12933] | pKd (ARHGEF11, O15085): below the threshold; pKd (GOPC, Q9HD26): below the threshold; pKd (Inadl_9, Q8NI35): below the threshold; pKd (MAGI1_2, Q96QZ7): below the threshold; pKd (MPP2, Q14168): below the threshold
3 | below the threshold | 3.49 | below the threshold | below the threshold | below the threshold | below the threshold | below the threshold | below the threshold | below the threshold | below the threshold | below the threshold | below the threshold | below the threshold | 3.88 | below the threshold | below the threshold | below the threshold | below the threshold | 3.56 | below the threshold | GSGAVEMESV [AQP6, Q13520] | pKd (ARHGEF11, O15085): below the threshold; pKd (GOPC, Q9HD26): below the threshold; pKd (Inadl_9, Q8NI35): below the threshold; pKd (MAGI1_2, Q96QZ7): below the threshold; pKd (MPP2, Q14168): below the threshold
